Test results taken from patent US20240254166A1 (University of California, published 2024).

Biological target: T1, T-Alb-VFP (human, UniProt P02768 25-609)
T1 construct: mature;domain: transmembrane domain; also called tethered Alb
Experiment: FRET (donor photobleaching), HEK293T cells

B1: CiHv1-TFP (other)
chain: MEGDNCNKSRHKSHNMINPNYASVRCTQPLPSVIQLRSRNKMIGITEDPSSDSEPVSSNQPLLLTNLSYEVHTFNDNNNHERPAPQEQSTQNTMISMQSEQKSDRFTASNLGMFQYMKFEIGEDGDDHEEEAILTNREKLRHILHSKPIHVAIIVLVVLDSFLVVGELLIDLKVIIVPHGNPAPEILHGFSLSILSIFMVEIALKIIADHRHFIHHKVEVLDAVVVVISFGVDIALIFVGESEALAAIGLLVILRLWRVFRIINGIIVTVKTKADDRVHEIKKKNSELELQIHNLEEKLSQKEQDMSRLHEILRCNNIDIPPTVPLTTSVQIHSTTTASADV
notes: whole, on cells
  binding result: no binding
